The assay deals with recombinant EGF (rEGF) protein with SV5 and 6xHis tags (human). Kind of assay: ELISA; titration ELISA: plates coated with rEGF at 5 µg/mL (BSA coating for negative controls, at the maximum tested nanobody concentration), blocked with 3% skimmed milk, biotinylated nanobodies serially diluted 1 h at RT, detected with streptavidin-HRP; KD estimated by the fitting function of ref. 37; triplicates.

In PMC10223678 one finds Kd data, which are given here for two molecules.

B1: recombinant anti-EGF nanobody D6-4, biotinylated (VHH)
VHH: QVQLVESGGGSVQAGGSLRLSCTASGTRRYKYNVFDLGWFRQAPGQEREAVAAISTGGGRTYYADSVKGRFTISRDNAKNTVTLQMNNLKPEDTAIYYCAARRTNNANFRYWGQGTQVTVS
In the case of B1, the Kd is 370 nM.

B2: recombinant anti-EGF nanobody A8-1, biotinylated (VHH)
VHH: QVQLVESGGGSVQAGGSLRLSCTASGNSNYQYPHFDLGWFRQAPGQEREAVAAISSGGGRTYYADSVKGRFTISRDNAKNTVTLQMNNLKPEDTAIYYCAAVGSRTRNYRYWGQGTQVTVS
For B2, the dissociation constant Kd was 240 nM.
